Measurements taken from PMC9409100.

Assays:
Experiment in all cases: pull-down
[1] = target: T1, His6-MBP-Csy4* (inactive Csy4) H29A;S50C (Pseudomonas aeruginosa) (UniProt Q02MM2); conditions: no imidazole; RNA folded in 20 mM Tris-HCl pH 7.5, 100 mM (salt not given), 3 mM MgCl2; binding 90 min at 4 C on beads; RNA binding buffer 20 mM Tris-HCl pH 7.5, 100 mM …
T1 sequence: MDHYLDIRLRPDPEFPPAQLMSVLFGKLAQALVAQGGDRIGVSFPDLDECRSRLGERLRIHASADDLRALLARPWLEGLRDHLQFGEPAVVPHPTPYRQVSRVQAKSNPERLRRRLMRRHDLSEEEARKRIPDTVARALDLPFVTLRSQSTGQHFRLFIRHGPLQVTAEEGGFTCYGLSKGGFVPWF

[2] = target: T2, His6-Myc-Csy4* (inactive Csy4) H29A;S50C (Pseudomonas aeruginosa) (UniProt Q02MM2); conditions: no imidazole; 'almost 50%'; RNA folded in 20 mM Tris-HCl pH 7.5, 100 mM (salt not given), 3 mM MgCl2; binding 90 min at 4 C on beads; RNA binding buffer 20 mM Tris-HCl pH 7.5, 100 mM …
T2 sequence: T1 sequence

[3] = target: T3, His6-TwinStrep-Csy4* (inactive Csy4) H29A;S50C (Pseudomonas aeruginosa) (UniProt Q02MM2); conditions: no imidazole; RNA folded in 20 mM Tris-HCl pH 7.5, 100 mM (salt not given), 3 mM MgCl2; binding 90 min at 4 C on beads; RNA binding buffer 20 mM Tris-HCl pH 7.5, 100 mM …
T3 sequence: T1 sequence

Sequence “GGGUUCACUGCCGUAUAGGCAGAUAUAGAAGGUAGUGGAUCUCGACAGGGUUGAUAUGAGAACACACGAGUAAUCAACGGCUGUAAUGACGCUACGUCAUUGUUACAGCUCUCGUUUUCAUGUGUUCUCAGGUCACCCCUGCUGAGCUCUUUCUCUACCGUAAUUAC [Csy4-hairpin-tagged pri-miR398b-SL]” has a binding signal (% transcript depleted from supernatant) [1] of 80, a binding signal (% transcript depleted from supernatant) [2] of 50 and a binding signal (% transcript depleted from supernatant) [3] of under 10.
